B1: HDV Ribozyme (parent)
chain: GGCCGGCAUGGUCCCAGCCUCCUCGCUGGCGCCGGCUGGGCAACAUUCCGAGGGGACCGUCCCCUCGGUAAUGGCGAAUGGGACCCA

Variants of: B1
Assay: self-cleavage, relative activity (ratio to wild type); higher = more cleavage; co-transcriptional

First: G39C A56G
Second: U37C C75A
The self-cleavage of the first is higher: 0.356 for the first, 0.177 for the second.

Compared with U9A C48U, U27A G35A is lower in self-cleavage: 0.914 for the first, 0.369 for the second.

First: U20C G25U
Second: C26U U47A
The self-cleavage of the first is lower: 0.0415 for the first, 1.16 for the second.

Going from C15G C64G to C14U C62G, the self-cleavage rises from 0.415 to 0.751.

Going from G68C G74C to G25U C36A, the self-cleavage falls from 0.181 to 0.106.

Going from C49A A56U to U37C A71U, the self-cleavage falls from 1.1 to 0.807.

Going from C61U G76U to A56C A83U, the self-cleavage falls from 1.06 to 0.192.

First: G25C A56G
Second: G17U A43U
The self-cleavage of the first is lower: 0.161 for the first, 0.185 for the second.

First: G68C G82U
Second: C18U C86U
The self-cleavage of the first is lower: 0.352 for the first, 0.886 for the second.

Going from C41U C57U to C30A G81A, the self-cleavage falls from 1.12 to 0.111.

Compared with G2A C3A, C15U C22U is higher in self-cleavage: 0.0478 for the first, 0.35 for the second.

Going from U69C C86G to G82C A83C, the self-cleavage falls from 1.05 to 0.284.

Going from C19G U65C to A8U G53U, the self-cleavage rises from 0 to 0.867.

Compared with U9G U23C, C19U A45U is lower in self-cleavage: 0.923 for the first, 0.136 for the second.

Compared with C33U U47G, C7A G38A is lower in self-cleavage: 0.692 for the first, 0.0639 for the second.

Going from C24U C63U to A56C C62G, the self-cleavage falls from 0.726 to 0.458.

Going from C62G U69C to U46G A77U, the self-cleavage falls from 0.534 to 0.0831.

First: C26U C44A
Second: C21A C58A
The self-cleavage of the first is higher: 1.03 for the first, 0.104 for the second.

Compared with A43C A83G, G11U G29C is lower in self-cleavage: 0.0923 for the first, 0.0231 for the second.

Compared with C61U G80C, A8G U72C is higher in self-cleavage: 0.115 for the first, 0.293 for the second.

First: A8U A78U
Second: U23G G31A
The self-cleavage of the first is lower: 0.128 for the first, 0.175 for the second.

Compared with C7G A16C, C3U G59C is higher in self-cleavage: 0.151 for the first, 0.688 for the second.

Going from U79G C85U to C13G G76U, the self-cleavage falls from 0.705 to 0.104.

First: U20C C63U
Second: G10U C30U
The self-cleavage of the first is lower: 0.0898 for the first, 0.137 for the second.

First: G38C U65A
Second: A45C A71G
The self-cleavage of the first is lower: 0.341 for the first, 1.11 for the second.

Compared with C3U C84A, G10C C30A is lower in self-cleavage: 0.665 for the first, 0.107 for the second.

Going from C48G G50C to U12A U20C, the self-cleavage falls from 0.939 to 0.

Compared with C7U C33A, G38U G80A is higher in self-cleavage: 0.0831 for the first, 0.102 for the second.

Compared with C21G G28C, C32A C86A is higher in self-cleavage: 0.0755 for the first, 0.356 for the second.

Going from G11A C84U to U9C C44A, the self-cleavage falls from 0.991 to 0.594.

Going from A43U U47A to A16U G74C, the self-cleavage falls from 0.271 to 0.175.

Compared with C24U G76C, C48A C85U is higher in self-cleavage: 0.997 for the first, 1.16 for the second.

Compared with C48A C85A, A42U G82C is lower in self-cleavage: 0.717 for the first, 0.264 for the second.

First: C24G C49G
Second: A8U U60C
The self-cleavage of the first is lower: 0.0314 for the first, 0.492 for the second.

Going from C4A C58U to U27C C57G, the self-cleavage rises from 0.424 to 0.639.

Compared with C57A G67C, G34U C75U is lower in self-cleavage: 1.05 for the first, 0.109 for the second.

First: G34U C75G
Second: U69A U72A
The self-cleavage of the first is lower: 0.214 for the first, 0.609 for the second.

Going from U47C G82C to U47C G82A, the self-cleavage rises from 0.185 to 0.401.

Compared with G38A U65A, C48U G67U is higher in self-cleavage: 0.273 for the first, 1.27 for the second.

First: C49G A83C
Second: U27G G59C
The self-cleavage of the first is lower: 0.403 for the first, 1.03 for the second.

Going from G40U U60G to C44G G68U, the self-cleavage falls from 0.796 to 0.399.

Compared with C13A C15U, C18U U46C is higher in self-cleavage: 0.185 for the first, 0.374 for the second.

Compared with G2U, G31A C44G is higher in self-cleavage: 0.0584 for the first, 0.133 for the second.

First: A70C A78C
Second: U65A C84G
The self-cleavage of the first is lower: 0.208 for the first, 0.494 for the second.

Compared with C14U C86U, A42C U46A is lower in self-cleavage: 0.875 for the first, 0.107 for the second.

Going from C4G G25C to G2A G29C, the self-cleavage rises from 0 to 0.0292.

Going from G50C G80C to U23G C86A, the self-cleavage rises from 0.0906 to 0.607.

Going from A71G A77G to U12G C13U, the self-cleavage rises from 0.88 to 0.931.

Compared with C7U G53C, G17C C41U is lower in self-cleavage: 1.12 for the first, 0.0449 for the second.

Going from G5A A45C to G10C G59C, the self-cleavage rises from 0.0462 to 0.785.

First: C30U
Second: C61A A78C
The self-cleavage of the first is higher: 0.746 for the first, 0.145 for the second.

Going from G5C C66A to G50U A56G, the self-cleavage rises from 0.172 to 0.943.

Going from U12A C85G to U9G C24A, the self-cleavage rises from 0.208 to 0.525.

Going from A71U G76C to G34U G52U, the self-cleavage falls from 0.914 to 0.0588.

Going from G6A U46G to A51G G80C, the self-cleavage falls from 0.229 to 0.141.

Compared with C7A C14G, U20G G55A is higher in self-cleavage: 0 for the first, 0.356 for the second.

First: G28A G67U
Second: G34U G40A
The self-cleavage of the first is lower: 0.0536 for the first, 0.0542 for the second.

Compared with G6U C15A, U23C C62U is higher in self-cleavage: 0 for the first, 1.03 for the second.

Compared with G17U G34C, U65C G82A is higher in self-cleavage: 0.0692 for the first, 0.554 for the second.

Compared with C61G G82C, U12C C24U is lower in self-cleavage: 0.233 for the first, 0.0791 for the second.

Going from C41A C84U to A45G G80A, the self-cleavage falls from 0.388 to 0.177.

Going from G50C G67U to U47C G54A, the self-cleavage rises from 0.795 to 1.04.

First: C61A A83U
Second: C14U C19G
The self-cleavage of the first is higher: 0.47 for the first, 0.0396 for the second.

First: C4A C32G
Second: U12A A51C
The self-cleavage of the first is lower: 0 for the first, 0.237 for the second.

First: A45U U79A
Second: U47C C58U
The self-cleavage of the first is lower: 0.192 for the first, 0.752 for the second.

Going from G68C C86U to U27G A78C, the self-cleavage falls from 0.997 to 0.499.

First: G5C C21G
Second: A8U G54U
The self-cleavage of the first is lower: 0.125 for the first, 0.574 for the second.

Going from U9A G28U to C7G C14U, the self-cleavage rises from 0.0898 to 0.196.

Going from C3G G59A to A83U C85A, the self-cleavage falls from 0.831 to 0.237.

Going from G10C C86G to C4U C44G, the self-cleavage falls from 0.538 to 0.214.

Compared with G55U C85G, G55U C85U is lower in self-cleavage: 0.927 for the first, 0.92 for the second.

Compared with G67C A78C, C44A A78U is higher in self-cleavage: 0.0639 for the first, 0.104 for the second.

First: G2A A71G
Second: U9A U12G
The self-cleavage of the first is lower: 0.241 for the first, 1.06 for the second.

Going from A78G C85G to C18G U65C, the self-cleavage falls from 0.539 to 0.175.

Going from A71U G82U to U20G C41G, the self-cleavage falls from 0.248 to 0.166.

First: G6U G50C
Second: G11C G59C
The self-cleavage of the first is higher: 0.776 for the first, 0.415 for the second.

First: C15A U47C
Second: C30U G73C
The self-cleavage of the first is higher: 0.317 for the first, 0.136 for the second.

Compared with G52U C61U, C24G A56U is lower in self-cleavage: 0.936 for the first, 0.0831 for the second.

First: G35A A83U
Second: C49U G52C
The self-cleavage of the first is lower: 0.507 for the first, 0.866 for the second.

Compared with U69G C75U, G2C G29U is lower in self-cleavage: 0.0615 for the first, 0.0494 for the second.

Going from G59U C64G to G39A C57U, the self-cleavage falls from 1.13 to 0.665.

Compared with U20C G50U, C24G U65G is higher in self-cleavage: 0.163 for the first, 0.233 for the second.

First: C14G G39A
Second: G1C C64G
The self-cleavage of the first is higher: 0.277 for the first, 0.244 for the second.

With A8G C57G the self-cleavage was 1.27.
